Consider six molecules from patent US20200283537A1 (published 2020).

The target of experiment [1] is T1, Recombinant DR5 (rDR5), extracellular domain of DR5/TRAIL-R2 fused to IgG4-Fc. As to the kind of experiment: ELISA.
Experiment [2] addresses T2, Recombinant FOLR1 (rFOLR1), extracellular domain of folate receptor alpha-1 fused to IgG4-Fc. Description: ELISA.
The target of experiment [3] is T1, Recombinant DR5 (rDR5), extracellular …. As to the kind of experiment: ELISA. This is another data set of the same source. (In general: An ELISA detects its analyte on a solid surface through an enzyme-linked reagent.)
Experiment [4] addresses T2, Recombinant FOLR1 (rFOLR1), …. As to the kind of experiment: ELISA. This is another data set of the same source.
Experiment [5] concerns the target T1, Recombinant DR5 (rDR5), extracellular …. Description: BLI. (In BLI a coated tip is dipped into the sample, and binding shifts an interference pattern.)
The target in experiment [6] is T2, Recombinant FOLR1 (rFOLR1), …. As to the kind of experiment: BLI.
In experiment [7] the target is T1, Recombinant DR5 (rDR5), extracellular …. Description: BLI. The source holds these as a separate data set.
In experiment [8] the target is T2, Recombinant FOLR1 (rFOLR1), …. As to the kind of experiment: BLI. The source holds these as a separate data set.
Experiment [9] addresses T1, Recombinant DR5 (rDR5), extracellular …. As to the kind of experiment: ELISA. The source holds these as a separate data set.
For experiment [10] the target is unchanged. As to the kind of experiment: ELISA. The source holds these as a separate data set.
For experiment [11] the target is unchanged. As to the kind of experiment: BLI. This is another data set of the same source.
Experiment [12] shares this target. Description: BLI. This is another data set of the same source.

B1: BaCa-1 (Bispecific-Anchored Cytotoxicity-Activator-1; farletuzumab IgG1 with a lexatumumab scFv at the C-terminus of the heavy chain) (bispecific antibody)
heavy: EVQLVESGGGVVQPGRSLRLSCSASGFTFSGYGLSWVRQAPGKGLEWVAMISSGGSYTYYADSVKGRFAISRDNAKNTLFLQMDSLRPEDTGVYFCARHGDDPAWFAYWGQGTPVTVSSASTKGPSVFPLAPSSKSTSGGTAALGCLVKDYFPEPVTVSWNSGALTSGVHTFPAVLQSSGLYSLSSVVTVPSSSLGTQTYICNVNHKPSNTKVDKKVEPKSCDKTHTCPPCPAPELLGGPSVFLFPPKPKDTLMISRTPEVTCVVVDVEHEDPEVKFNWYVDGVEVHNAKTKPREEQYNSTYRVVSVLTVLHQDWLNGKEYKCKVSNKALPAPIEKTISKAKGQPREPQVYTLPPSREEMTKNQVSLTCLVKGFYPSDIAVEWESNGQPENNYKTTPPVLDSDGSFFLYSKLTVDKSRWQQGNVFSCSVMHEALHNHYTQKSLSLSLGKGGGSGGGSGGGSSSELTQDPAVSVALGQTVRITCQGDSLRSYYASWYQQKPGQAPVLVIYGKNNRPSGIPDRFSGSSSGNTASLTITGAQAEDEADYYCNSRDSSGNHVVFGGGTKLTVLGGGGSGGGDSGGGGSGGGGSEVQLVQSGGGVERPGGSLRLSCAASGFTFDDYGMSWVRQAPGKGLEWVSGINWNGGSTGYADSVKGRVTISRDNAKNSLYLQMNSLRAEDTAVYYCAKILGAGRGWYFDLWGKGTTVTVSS
light: DIQLTQSPSSLSASVGDRVTITCSVSSSISSNNLHWYQQKPGKAPKPWIYGTSNLASGVPSRFSGSGSGTDYTFTISSLQPEDIATYYCQQWSSYPYMYTFGQGTKVEIKRTVAAPSVFIFPPSDEQLKSGTASVVCLLNNFYPREAKVQWKVDNALQSGNSQESVTEQDSKDSTYSLSSTLTLSKADYEKHKVYACEVTHQGLSSPVTKSFNRGEC
With B1, the Kd was 0.73 nM in experiment [1]; 0.61 nM in experiment [2]; 1.41 nM in experiment [3]; 1.21 nM in experiment [4]; 3.1 nM in experiment [5]; 12 nM in experiment [6]. In addition, the Kd turned out to be 3.1 nM in experiment [7] and 12 nM in [8].

B2: BaCa antibody with LALA-Fc (L234A-L235A) mutations in the CH2 domain (bispecific antibody)
heavy: EVQLVESGGGVVQPGRSLRLSCSASGFTFSGYGLSWVRQAPGKGLEWVAMISSGGSYTYYADSVKGRFAISRDNAKNTLFLQMDSLRPEDTGVYFCARHGDDPAWFAYWGQGTPVTVSSASTKGPSVFPLAPSSKSTSGGTAALGCLVKDYFPEPVTVSWNSGALTSGVHTFPAVLQSSGLYSLSSVVTVPSSSLGTQTYICNVNHKPSNTKVDKKVEPKSCDKTHTCPPCPAPEAAGGPSVFLFPPKPKDTLMISRTPEVTCVVVDVEHEDPEVKFNWYVDGVEVHNAKTKPREEQYNSTYRVVSVLTVLHQDWLNGKEYKCKVSNKALPAPIEKTISKAKGQPREPQVYTLPPSREEMTKNQVSLTCLVKGFYPSDIAVEWESNGQPENNYKTTPPVLDSDGSFFLYSKLTVDKSRWQQGNVFSCSVMHEALHNHYTQKSLSLSLGKGGGSGGGSGGGSSSELTQDPAVSVALGQTVRITCQGDSLRSYYASWYQQKPGQAPVLVIYGKNNRPSGIPDRFSGSSSGNTASLTITGAQAEDEADYYCNSRDSSGNHVVFGGGTKLTVLGGGGSGGGDSGGGGSGGGGSEVQLVQSGGGVERPGGSLRLSCAASGFTFDDYGMSWVRQAPGKGLEWVSGINWNGGSTGYADSVKGRVTISRDNAKNSLYLQMNSLRAEDTAVYYCAKILGAGRGWYFDLWGKGTTVTVSS
light: B1 light
With B2, the dissociation constant (Kd) in experiment [3] was 1.65 nM; in [4], 0.904 nM.

B3: BaCa-2 (knob/hole single-chain-linked bispecific, monovalent anti-FOLR1 and anti-DR5) (bispecific antibody)
chain 1: not shown
chain 2: SSELTQDPAVSVALGQTVRITCQGDSLRSYYASWYQQKPGQAPVLVIYGKNNRPSGIPDRFSGSSSGNTASLTITGAQAEDEADYYCNSRDSSGNHVVFGGGTKLTVLRTVAAPSVFIFPPSDEQLKSGTASVVCLLNNFYPREAKVQWKVDNALQSGNSQESVTEQDSKDSTYSLSSTLTLSKADYEKHKVYACEVTHQGLSSPVTKSFNRGECGGGGSGGGGSGGGGSGGGGSGGGGSGGGGSGGGGSGGGGSGGGGSGGGGSEVQLVQSGGGVERPGGSLRLSCAASGFTFDDYGMSWVRQAPGKGLEWVSGINWNGGSTGYADSVKGRVTISRDNAKNSLYLQMNSLRAEDTAVYYCAKILGAGRGWYFDLWGKGTTVTVSSASTKGPSVFPLAPSSKSTSGGTAALGCLVKDYFPEPVTVSWNSGALTSGVHTFPAVLQSSGLYSLSSVVTVPSSSLGTQTYICNVNHKPSNTKVDKRVEPKSCDKTHTCPPCPAPELLGGPSVFLFPPKPKDTLMISRTPEVTCVVVDVSHEDPEVKFNWYVDGVEVHNAKTKPREEQYNSTYRVVSVLTVLHQDWLNGKEYKCKVSNKALPAPIEKTISKAKGQPREPQVYTLPPSREEMTKNQVSLTCLVKGFYPSDIAVEWESNGQPENNYKTTPPVLDSDGSFFLTSKLTVDKSRWQQGNVFSCSVMHEALHNRFTQKSLSLSPG
For the molecule B3, the Kd was found to be 1.08 nM in experiment [1] and 0.0887 nM in experiment [2].

B4: BaCa-3 (dual-variable-domain bispecific, lexatumumab variable domains outer, farletuzumab inner) (bispecific antibody)
heavy: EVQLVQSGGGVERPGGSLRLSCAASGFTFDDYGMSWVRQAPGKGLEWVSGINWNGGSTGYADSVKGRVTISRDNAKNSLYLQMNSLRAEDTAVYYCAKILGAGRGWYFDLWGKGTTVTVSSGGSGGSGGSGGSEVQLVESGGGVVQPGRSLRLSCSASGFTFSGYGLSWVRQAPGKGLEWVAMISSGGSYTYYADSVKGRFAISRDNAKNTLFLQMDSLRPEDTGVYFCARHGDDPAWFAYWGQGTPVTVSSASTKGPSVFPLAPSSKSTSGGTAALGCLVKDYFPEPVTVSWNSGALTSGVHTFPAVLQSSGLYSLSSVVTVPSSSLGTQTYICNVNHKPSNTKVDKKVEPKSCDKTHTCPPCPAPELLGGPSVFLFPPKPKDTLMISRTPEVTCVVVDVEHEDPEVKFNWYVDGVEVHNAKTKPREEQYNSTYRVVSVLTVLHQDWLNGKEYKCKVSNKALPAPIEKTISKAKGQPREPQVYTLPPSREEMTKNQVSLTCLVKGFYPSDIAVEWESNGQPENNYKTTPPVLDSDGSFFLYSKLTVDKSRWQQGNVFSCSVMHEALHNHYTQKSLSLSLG
light: SSELTQDPAVSVALGQTVRITCQGDSLRSYYASWYQQKPGQAPVLVIYGKNNRPSGIPDRFSGSSSGNTASLTITGAQAEDEADYYCNSRDSSGNHVVFGGGTKLTVLGGSGGSGGSGGSDIQLTQSPSSLSASVGDRVTITCSVSSSISSNNLHWYQQKPGKAPKPWIYGTSNLASGVPSRFSGSGSGTDYTFTISSLQPEDIATYYCQQWSSYPYMYTFGQGTKVEIKRTVAAPSVFIFPPSDEQLKSGTASVVCLLNNFYPREAKVQWKVDNALQSGNSQESVTEQDSKDSTYSLSSTLTLSKADYEKHKVYACEVTHQGLSSPVTKSFNRGEC
In the case of B4, the Kd in experiment [1] was 0.538 nM; in [2], 0.392 nM.

B5: Farletuzumab (humanized anti-FOLR1 monoclonal antibody), recombinant human IgG1 (antibody, V domains shown)
VH: EVQLVESGGGVVQPGRSLRLSCSASGFTFSGYGLSWVRQAPGKGLEWVAMISSGGSYTYYADSVKGRFAISRDNAKNTLFLQMDSLRPEDTGVYFCARHGDDPAWFAYWGQGTPVTVSS
VL: DIQLTQSPSSLSASVGDRVTITCSVSSSISSNNLHWYQQKPGKAPKPWIYGTSNLASGVPSRFSGSGSGTDYTFTISSLQPEDIATYYCQQWSSYPYMYTFGQGTKVEIKR
With B5, the Kd in experiment [2] amounted to 0.42 nM; in [4], 0.985 nM; in experiment [6] it was 15 nM; in [8], 15 nM.

B6: Lexatumumab (anti-TRAIL-R2/DR5 antibody), recombinant human IgG1 (antibody, V domains shown)
VH: EVQLVQSGGGVERPGGSLRLSCAASGFTFDDYGMSWVRQAPGKGLEWVSGINWNGGSTGYADSVKGRVTISRDNAKNSLYLQMNSLRAEDTAVYYCAKILGAGRGWYFDLWGKGTTVTVSS
VL: SSELTQDPAVSVALGQTVRITCQGDSLRSYYASWYQQKPGQAPVLVIYGKNNRPSGIPDRFSGSSSGNTASLTITGAQAEDEADYYCNSRDSSGNHVVFGGGTKLTVLG
In the case of B6, the Kd worked out at 1.26 nM in experiment [9], 0.518 nM in experiment [10], 3.3 nM in experiment [11] and 3.3 nM in [12].

The term Kd denotes the equilibrium constant for the complex coming apart.
